B1: VP1 capsid protein of murine norovirus type 1 (MNoV-1), as the capsid of infectious particles (natural protein)
chain: MRMSDGAAPKANGSEASGQDLVPAAVEQAVPIQPVAGAALAAPAAGQINQIDPWIFQNFVQCPLGEFSISPRNTPGEILFDLALGPGLNPYLAHLSAMYTGWVGNMEVQLVLAGNAFTAGKVVVALVPPYFPKGSLTTAQITCFPHVMCDVRTLEPIQLPLLDVRRVLWHATQDQEESMRLVCMLYTPLRTNSPGDESFVVSGRLLSKPAADFNFVYLTPPIERTIYRMVDLPVIQPRLCTHARWPAPVYGLLVDPSLPSNPQWQNGRVHVDGTLLGTTPISGSWVSCFAAEAAYKFQSGTGEVATFTLIEQDGSAYVPGDRAAPLGYPDFSGQLEIEVQTETTKTGDKLKVTTFEMILGPTTNADQAPYQGRVFASVTAAASLDLVDGRVRAVPRSIYGFQDTIPEYNDGLLVPLAPPIGPFLPGEVLLRFRTYMRQIDTADAAAEAIDCALPQEFVSWFASNAFTVQSEALLLRYRNTLTGQLLFECKLYNEGYIALSYSGSGPLTFPTDGIFEVVSWVPRLYQLASVGSLATGRMLKQ
notes: also called MNoV-1 infectious particles; MNoV-1 particles; copies: 180
B2: VP1 capsid protein of murine norovirus type 1 (MNoV-1), as virus-like particles (natural protein, UniProt Q80J94 1-541, looked up)
chain: B1 chain
notes: Major capsid protein VP1 of murine norovirus type 1 (MNoV-1); Formed three types of particles: one large (T = 4) and two small (T = 3, resting and rising P domain conformations), so no single copy number; also called MNoV-1 VLPs; VLPs of MNoV-1; source: baculovirus expression system, purified (CsCl equilibrium ultracentrifugation), stored in DMEM

Columns and labels:
[1] = molecular target: the molecule itself; assay: cryo-EM structure; single-particle cryo-EM at 200 kV (JEM2200FS); purified particles suspended in DMEM; icosahedral reconstruction
[2] = molecular target: the molecule itself; assay: cryo-EM structure; single-particle analysis (RELION) of MNoV-1 VLPs stored in DMEM; three types of particles reconstructed

Row | Protein | binding result [1] | binding result [2]
1 | B1 | binds | –
2 | B2 | – | binds

— paper PMC7331980, “Dynamic rotation of the protruding domain enhances the infectivity of norovirus” (PLoS Pathogens, 2020)
